For the experiment, the target named is Methanol dehydrogenase (MDH) of Bacillus brevis S1 strain (NCIMB 12524) (Bacillus brevis S1 strain (NCIMB 12524)). As to the kind of experiment: cell-based or functional assay.

The record followed here is patent US20030119155A1.

In turn, “Amd (Activator of methanol dehydrogenase), YqkG gene product of Bacillus subtilis 168 strain (from UniProt P54570 1-185)” gave an NADH producing rate (increase of absorbance at 340 nm after methanol addition) in cell extract, against the pHY300PLK vector control of 5 times.
